# Assay: soluble fraction after stress (log2 fold change); higher = more stays soluble; pooled small domains, quantitative proteomics
# Conditions: stress: pH 4
# Method in brief: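 Pooled custom libraries of small protein domains were stressed at pH 4 and then measured by high-throughput quantitative proteomics. The fold change in the amount of each domain that stays soluble after the acid stress serves as a measure of aggregation propensity. Fold changes are given on a log2 scale, and higher values mean more of the domain stayed soluble.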
row,Sequence,soluble fraction (log2)
1,HMSMTLSVLDDVRGLSESRRKQLFHSFGSIKKLREQSKETLMSIPYLPEKVALELYDKLHEE,0.272
2,HMSMVGSVNKQGRPFALLRVDNLLYQVKVGDYLGQNYGRITQIDETQIALREIVQDAAGEWIERPGVLQL,-0.256
3,HMSNATELVYDDGRKLLISYETLVGGYHPDLGWIRTAKTYSISTDKHIRNYFNNVTNPRVVGEDILETLKI,-0.237
4,HMSNDRSYLARLQDYYAEHRALPSYASIGALLGLRSKSSVAALVARLKLAGFVESTPDRRLAPTRRFF,0.344
5,HMSNEWIEISAKTVDDAINEGLIRLGTTTDKMDVEVLEKESAGFLGFIGKHDAKIRVRFKEV,-0.608
6,HMSNGYVTAKTTVNVRKSASESGERLGVIYQGDKLELVMNQADGWTKVKYKGQTAYVKSEFM,0.161
7,HMSNHYETLGVPRDASQEDIKRAYRRLARKLHPDVAGPGKAEEFKAVNEAYAVLSDEESRRMYDLGGDDAL,0.145
8,HMSNIQLVENLYRLRKAHHYTQQEISDLLNISRQAYSNYETSKRTPDLDSLMRLADIYGVSLDQLVNHP,-0.347
9,HMSNLENSLNESLSLLKSNKYNEALEILKKIEIEDSRVFFLLGTIYSVMKNINLGEEFLIKASK,-1.32
10,HMSNLGLQIVRTLTDAGKGVVFITHKLKEALTIADRINVLRRGKVVGDADPKTASESQIAEMMVGRPVQL,0.0653
11,HMSNMWVWSKLSGIQWMDAWEDRFHGNPNTVITRLKTNKTVRVEVYTETEQEALDIKKLFGGSIRKLV,0.103
12,HMSNRFIQFRQRAIDWLNSDRDFNAGILLLEESGFKPGVVAKLKRHGVNGPEAKKRLKFLINELVKAWA,-0.374
13,HMSNVKVYPNPTSGKLTIDAENYKGVEVYDTSGRLIVKSELRTIDLEEQSKGLYLLKVNANGTTQEFKVFK,-0.977
14,HMSNYLKSVEVFDPITNKWSYVSAMKVRRGYVAVVATMDRLYAIGGYDGENYLSTVEMYNPDTN,0.0787
15,HMSPAVSLITGKLGAETYYKQGLKKAKEKDYEGALDDLIKAYEFFPDKKIKTQVDKLASFLGKPPIL,0.0374
16,HMSPIKAGDLVKITGTKYYRGQTIPSWVKAKNWFVHSVSGDRAVINKSEDGKNAIMSPVKVSNLALVT,0.0492
17,HMSPILTPDQATKAYGKDGVLYIHSNKERTIYIYDVTGRTVRILEAVEGENQINGLEKGIYFLEGQKVAV,-0.378
18,HMSPLQLGNYNTLRITRFTDHGAYLDGGDVGEILMPKTYVLPEMKPGDEVRVFVYLDQEERLVGTTET,-1.44
19,HMSPPVIQQGQDVRLIYKGTGFAVSNEGKALNTAADGQVARARTGGGQTVSGIARPGGIIEIT,0.103
20,HMSPQPPNQEAVRTRILDQAAHLFLTIGYAETTVRRIAGAVGIKAASLYHHFGSKDEVFESILIR,0.21
21,HMSPRADRSVNLDVGETVQIDDWGADGTAQIRYRGAPWTAVLRPGHTPHPGPHRVIELVGSRLLVEP,-0.746
22,HMSPRAIYVTTSDLNMRMQPSPNAYKRGVAPRGTELLVVEWGDDWSKVIFEGDTAYAASRYLSYVKDEP,-0.419
23,HMSQDEVVADMKADLGPDADNIIRSNIQWADGLVRKGILTESEREELDVMGGTPEAQRILVKLRTMQG,-0.539
24,HMSQDTLIENGKVFLIHKVVAGQTLYGLSKAYNITIEDIIKYNPQAENGIKIGEDIKIFLKEE,-1.1
25,HMSQEHTVPDYKDMEATVVYADLTQKGLNYEIAQETSPTIKEGNVTQTIPGMNEKVVSGDTITVFVSTGTG,-0.907

row,Sequence,soluble fraction (log2)
1,HMSQIDLQIGHKIKSKRRKLGISQADMAKKLYISPSYLNLIESGKRKINVDLLLKLSNELGIEMSDIS,0.33
2,HMSQIILSARSGHAALRHRLGELGYTFADKEFDDIYERFLEVADQKKEVYDEDLESIVQERQRD,-0.559
3,HMSQITEADYIPNTDKTWGELMEETGESLPNLVERYNNEMTKSNGKEQPQSIIQRIIEDYQMVS,-0.0864
4,HMSQLSDEQELRDIARGIIEGNPNEAEKYRAGRTGLLGFFVGKLMAETEGKANPRLASRILKELLE,-0.441
5,HMSQLSQIVDAFGGLRPFARALNKPPSTVQYWIEKGGIPASVVSPIMKLSEEKGLGLSRDQVSAAVS,0.0542
6,HMSQLTVGTVVTGNASLQTQGLKLPSFASGSRPASPNIGQMIWNSSDAKAQIWNGSEWDDVG,≥ 0.43
7,HMSQNVSFTVDSGQAGLRLDVFLSQADPAFSRSQIKYAIEEGDVTVNGKEPKVSQHLKDGDIVELHLE,0.114
8,HMSQQEAQLNSLVKIYESMKPKDAARIFDTLDMDVLLDVVMRMKEARSAAVLAEMTPDRAKEVTLQLAD,-1.8
9,HMSQTDQALRHLIREAWATLPQRQQQAVELAYYEGLPDTEIAARLNQPVEEVKTSIVLGMAHLREALHSY,-0.198
10,HMSQTDTDAKDARQKILALLSDGEWHQKTELLKIDAPKEAVSNAIRYLVLEELISIDHAKVRA,-0.465
11,HMSQTVKYVNTTSGLNMRTGPATSYAKITTIAYGQSVNVLSTSNGWSKINYSGSTGYVSSQYLQSKKPS,0.183
12,HMSQVHYAVLFKNASAAEATEIVTYARETLGVQDIKINANGDILVPEDKVEEMRVSMSIAGFPK,-0.349
13,HMSQVSTKYINVSSAYVRSKPSKDGEIVTSLIKNTDVTVTGENGDWYKIKFNNYEGYIFKELLSDSKLEE,-0.35
14,HMSRAMFEMHADWQPTDSIRGLLGRAGLPTDIAKLDQSRIGDFVNHWFGKPDRNTADSWNGLLVGWLKRTQ,-0.787
15,HMSREEFLAGLEEALAGEVPASVIRENLNYYNSYISQEMAKGRTVDEIVDEIGEPRIVARTIIDSSEAAGE,-0.246
16,HMSRELVILGNSMLNNALKAFHVSPASIKKKHWDKLILDYHLESKNNILIDIALGKRINVMVAHQLTSIID,≥ 0.43
17,HMSREVTVPPLSGLTLRDAARTLAERGLLMEAEGQGAVHRQDPPAGTRVPTGTPVRVFLTLPEQNS,-0.511
18,HMSRGTLFVDVRGAVAKPGVYELPEKSRVFQAVEAAGGLLPEALERLVNQAAELTDGQQVYIPFEGEE,0.429
19,HMSRLLRTDAHLQYAAERGLPVTASAYTPVFAGAKQYTGRIESFDAQTIRFADGPAVERKAVARLEAE,0.138
20,HMSRLLTTRQREVFEVATREGFWDVPRRINLSELAKVLGVAKSTLSSQLQRIESAVFHAFTDEIRRQS,0.313
21,HMSRMLTVKQREVFDLAMREGYWETPRRITLTMLASLLSVSKSTLSVQLHKIEGTVLSSFSDEVRRRS,-0.011
22,HMSRQDYLQTIYRLSVGKGYTTNKKIADFLSVSKPSVTEMIGKLQGEGLVAMDGAHIFLTEDGAEQ,0.108
23,HMSRVTVDVNPDVLQWAIDKKGKGDIKNKFPKIDEWLNGISKPTIHQLENFAKYVSVPFGYLLLSKPPVE,0.00473
24,HMSRYQDIANDIEKDIIEKKYTRKLPEQFELAQKYQTSRVTIVHALKILQNKKLIRTVKGHGTFITS,≥ 0.43
25,HMSSDEDELESIIKRVFADNPIELERLQNGEDKLIKFFMGLVMRQTKGKYPPKIIIDLLNKS,-1.54

row,Sequence,soluble fraction (log2)
1,HMSSDLDQYMKNIRKQHNLSKREFAKQLGISAATIVRIENGITVSPSKNLISKLAYYLQKSEVEILQDIQS,-0.393
2,HMSSEMATLRSIVDNKQAEKVHGMMVDMFTASAMVQVYDKVNDENQAKMREMLKTQKGFQRMADFALSKI,-0.535
3,HMSSEPASLVGKTGVAASVLRPSGRVEVNGEYYDAVSINGFIEKGESVFVHKYENAQLYVSKNSE,-0.183
4,HMSSESIKTDKNVGVGSTLEELEKAYGSDYTLSGKMYRYYQDDNSKYMYFFILNDVVQYYGYGIDV,-1.38
5,HMSSIDLTARSGRAALKHRLSLLGYEFSKIELETLYVRFIELADEKKLLHDEDLIELVKEKN,-0.655
6,HMSSIRDVVPEGLLSDREKLVLVLAFDRDLDGPDMARTLGISANTVRVLKARALKKLRQAGIQP,-0.34
7,HMSSIVLTARSGRAALAYRVKSIGVDLSKDQLDLVYKTFLGFADKKKEIIDTDIPQILKASGI,-0.265
8,HMSSIYVYPNPTANRIYIQADNIKKAELFDLMGRKVRSTNQPQIDISRLSRGNYILQVKTQNNTQSFKIIK,0.0347
9,HMSSKAVLEKFEALFIDQMLQSMRKATVRSELFDSEGIKLYESLFDKEISEELAKSGGLGLTKDLEQQL,-1.35
10,HMSSKFKIVGEILSIKKSDILYIIEILSNNEVVKATAVEDEIKDLKIGDKILLSSKAFNPIVNK,-1.09
11,HMSSLTDNFVKALSYYLALSGKSKKEVADGIGIPPTTFSSWSNGKHLPDMDRLQNLATYLGAPVSEFFDFT,0.051
12,HMSSPVGIAQATTYVYVRAGHSMQAAKVGVLSPGEKVGVTGRSAQGFSEVVYNGVHRWVGSRYLSPT,≥ 0.43
13,HMSSQWWYSAGGERKGPVDFATLRGLYVQGAIDGRTLAWREDMQGWEAVNDIPDLEPLRRAVPPEL,0.11
14,HMSSRSLSYSDFIERVDAGQVSKVVMDGERLVVVGQDGTSYVTIKPPGDQVTENLSRELISKGVEVEAEPQ,≥ 0.43
15,HMSSRSLTYSDFIERVDAGQVDAVTLDGERIVIRAKDGNTYVAIKPQGEDVTGSLTRDLIAKGVDVEAEPQ,0.0187
16,HMSSSDYDVYNKAINLMLNLLKEPKSIEEVTASLNITKSQAITWINRALNEGKIIKTNRPVRYVVNN,0.0142
17,HMSSSYMVRITTSVLNVRKGPGTNYGITTKVKKGEVYTIVAEEKNGNTTWGKLKSGTGYISLGYTER,-0.145
18,HMSSSYVYGGNGEIVILSDVSKHLNVYNLNGQKVTDVNLTAGELQRISIATGIYVVGGKKIVV,-0.121
19,HMSSVGELEVGNIFEGTVNSVRGGKVLLALGNGQMVLAQMDGRVNITPGSSMFFQVKSNDGETVAIRPYTG,0.156
20,HMSSWAEGLTERERHTLMWITKGLSNKLIARELGISDSTVKVYVKNLLRKLNVNSRLELAAWVHTHPL,-0.246
21,HMSSYTQEDVRSGILYMAQLKPRNIEEFVSTLAFSKDDIMDNLSFLVDEGFLKFDADTDTYFNPVPL,-0.604
22,HMSTADGGYPSIVINDGRVIDTNLQKLGLDRSWLSAELKRQGKGSEKDIFLMTVNQRREVYISVKEA,-0.589
23,HMSTEAFLGTEGEVVLPLLPDGLGKIRLHVADQDVELPARTGGEPIQIRERVVVVRFRDGIAEVEPAP,-0.525
24,HMSTEDYLKTIYILESQQGVHGSDVARMLKVTRPTVSIALKALEQEGYVWMDESRLVHLTDSGLQIAKDT,0.149
25,HMSTESAHLGERMLNQALRAMHIEPDQITEAHWQKLIRDYGLKKKSEILTDIGLGKRQNVMVAHQLLAMG,-0.143

# Reference: the domain aggregation screens of Martell et al. (2025)
